From publication PMC11253593

What was measured:
[1] = target: DdrI (DR0997), CRP family protein from Deinococcus radiodurans, untagged (Deinococcus radiodurans); test: SEC; gel filtration of the purified protein to check homogeneity and oligomeric state; also run with cAMP and Mn2+ added (dimer formation not affected)
[2] = target: eGFP-DdrI (DdrI with N-terminal fused eGFP) (Deinococcus radiodurans); test: as above

Row | stoichiometry N [1] | stoichiometry N [2] | Substance
1 | 2 | – | DdrI (DR0997), CRP family protein from Deinococcus radiodurans, untagged (natural protein)
2 | – | 2 | eGFP-DdrI (DdrI with N-terminal fused eGFP) (natural protein)
